Assay results reported in patent US20240117018A1.

How the values were obtained:
Assay in all cases: cell-based or functional assay
[1] = biological target: HIV-1 Env of pseudovirus REJO4541.67 (HIV-1)
[2] = biological target: HIV-1 Env of pseudovirus CNE17 (HIV-1)
[3] = biological target: HIV-1 Env of pseudovirus ZM109F.PB4 (HIV-1)
[4] = biological target: HIV-1 Env of pseudovirus BF1266.431a (HIV-1)
[5] = biological target: HIV-1 Env of pseudovirus Q259.d2.17 (HIV-1)
[6] = biological target: HIV-1 Env of pseudovirus CNE20 (HIV-1)
[7] = biological target: HIV-1 Env of pseudovirus Ce2010_F5 (HIV-1)
[8] = biological target: HIV-1 Env of pseudovirus Du156.12 (HIV-1)
[9] = biological target: HIV-1 Env of pseudovirus HIV-16845-2.22 (HIV-1)
[10] = biological target: HIV-1 Env of pseudovirus SC05_8C11_2344 (HIV-1)
[11] = biological target: HIV-1 Env of pseudovirus 6240_08_TA5_4622 (HIV-1)
[12] = biological target: HIV-1 Env of pseudovirus 246F C1G (HIV-1)
[13] = biological target: HIV-1 Env of pseudovirus 1054_07_TC4_1499 (HIV-1)
[14] = biological target: HIV-1 Env of pseudovirus HIV-16055-2.3 (HIV-1)
[15] = biological target: HIV-1 Env of pseudovirus CNE30 (HIV-1)
[16] = biological target: HIV-1 Env of pseudovirus 62357_14_D3_4589 (HIV-1)
[17] = biological target: HIV-1 Env of pseudovirus Ce0393_C3 (HIV-1)
[18] = biological target: HIV-1 Env of pseudovirus Du172.17 (HIV-1)
[19] = biological target: HIV-1 Env of pseudovirus HIV-0013095-2.11 (HIV-1)
[20] = biological target: HIV-1 Env of pseudovirus CAAN5342.A2 (HIV-1)
[21] = biological target: HIV-1 Env of pseudovirus ZM249M.PL1 (HIV-1)
[22] = biological target: HIV-1 Env of pseudovirus CNE5 (HIV-1)
[23] = biological target: HIV-1 Env of pseudovirus ZM197M.PB7 (HIV-1)
[24] = biological target: HIV-1 Env of pseudovirus MS208.A1 (HIV-1)
[25] = biological target: HIV-1 Env of pseudovirus CNE21 (HIV-1)
[26] = biological target: HIV-1 Env of pseudovirus QH0692.42 (HIV-1)
[27] = biological target: HIV-1 Env of pseudovirus 0260.v5.c36 (HIV-1)
[28] = biological target: HIV-1 Env of pseudovirus TRO.11 (HIV-1)
[29] = biological target: HIV-1 Env of pseudovirus Ce1176_A3 (HIV-1)
[30] = biological target: HIV-1 Env of pseudovirus Du422.1 (HIV-1)
[31] = biological target: HIV-1 Env of pseudovirus 1006_11_C3_1601 (HIV-1)
[32] = biological target: HIV-1 Env of pseudovirus ZM135M.PL10a (HIV-1)
[33] = biological target: HIV-1 Env of pseudovirus PVO.4 (HIV-1)
[34] = biological target: HIV-1 Env of pseudovirus Q769.d22 (HIV-1)
[35] = biological target: HIV-1 Env of pseudovirus Ce704809221_1B3 (HIV-1)

## PGT128 (antibody)
[1]
  neutralization IC50: > 50 µg/mL
  neutralization IC80: > 50 µg/mL
[2]
  neutralization IC50: 0.432 µg/mL
  neutralization IC80: 1.99 µg/mL
[3]
  neutralization IC50: > 50 µg/mL
  neutralization IC80: > 50 µg/mL
[4]
  neutralization IC50: > 50 µg/mL
  neutralization IC80: > 50 µg/mL
[5]
  neutralization IC50: > 50 µg/mL
  neutralization IC80: > 50 µg/mL
[6]
  neutralization IC50: 0.001 µg/mL
  neutralization IC80: 0.004 µg/mL
[7]
  neutralization IC50: > 50 µg/mL
  neutralization IC80: > 50 µg/mL
[8]
  neutralization IC50: 0.017 µg/mL
  neutralization IC80: 0.046 µg/mL
[9]
  neutralization IC50: 0.181 µg/mL
  neutralization IC80: 0.834 µg/mL
[10]
  neutralization IC50: 0.017 µg/mL
  neutralization IC80: 0.041 µg/mL
[11]
  neutralization IC50: 0.019 µg/mL
  neutralization IC80: 0.055 µg/mL
[12]
  neutralization IC50: 0.005 µg/mL
  neutralization IC80: 0.014 µg/mL
[13]
  neutralization IC50: 0.035 µg/mL
  neutralization IC80: 0.312 µg/mL
[14]
  neutralization IC50: > 50 µg/mL
  neutralization IC80: > 50 µg/mL
[15]
  neutralization IC50: 2.06 µg/mL
  neutralization IC80: 12.6 µg/mL
[16]
  neutralization IC50: 1.14 µg/mL
  neutralization IC80: > 50 µg/mL
[17]
  neutralization IC50: > 50 µg/mL
  neutralization IC80: > 50 µg/mL
[18]
  neutralization IC50: 0.028 µg/mL
  neutralization IC80: 0.08 µg/mL
[19]
  neutralization IC50: > 50 µg/mL
  neutralization IC80: > 50 µg/mL
[20]
  neutralization IC50: 0.514 µg/mL
  neutralization IC80: > 50 µg/mL
[21]
  neutralization IC50: 39.7 µg/mL
  neutralization IC80: > 50 µg/mL
[22]
  IC50 (Titer in TZM.bl cells): 0.018 µg/mL
  IC80 (Titer in TZM.bl cells): 0.253 µg/mL
[23]
  neutralization IC50: > 50 µg/mL
  neutralization IC80: > 50 µg/mL
[24]
  neutralization IC50: > 50 µg/mL
  neutralization IC80: > 50 µg/mL
[25]
  neutralization IC50: 0.01 µg/mL
  neutralization IC80: 0.026 µg/mL
[26]
  neutralization IC50: 0.029 µg/mL
  neutralization IC80: 0.081 µg/mL
[27]
  neutralization IC50: 0.058 µg/mL
  neutralization IC80: 0.162 µg/mL
[28]
  neutralization IC50: 0.019 µg/mL
  neutralization IC80: 0.045 µg/mL
[29]
  neutralization IC50: 0.009 µg/mL
  neutralization IC80: 0.026 µg/mL
[30]
  neutralization IC50: 0.039 µg/mL
  neutralization IC80: 0.113 µg/mL
[31]
  neutralization IC50: 0.011 µg/mL
  neutralization IC80: 0.04 µg/mL
[32]
  neutralization IC50: > 50 µg/mL
  neutralization IC80: > 50 µg/mL
[33]
  neutralization IC50: 0.011 µg/mL
  neutralization IC80: 0.028 µg/mL
[34]
  neutralization IC50: > 50 µg/mL
  neutralization IC80: > 50 µg/mL
[35]
  neutralization IC50: 0.026 µg/mL
  neutralization IC80: 0.072 µg/mL
